# Test results: patent publication US20220389379A1, “PRIMARY BREAST EPITHELIAL CELL CULTURE MEDIUM, CULTURE METHOD AND USE THEREOF” (PRECEDO PHARMACEUTICALS CO., LTD, priority 2019, published 2022)
# Tested on: primary breast tumor epithelial cells isolated from breast cancer tissues (HMFL-XN1, HMFL-XN3, HMFL-XN4, HMFL-XN6, HMFL-XN8)
# Experiment: Optimization of primary breast epithelial cell culture medium: cell count after culture with medium additives
# Type: cell-based, human
# Design: key: +: compared with the basis medium, the medium added with the additive(s) can promote the proliferation of primary breast tumor epithelial cells isolated from at least three cases of breast cancer tissues; −: the medium added with the additive(s) has the effect of inhibiting proliferation of primary breast tumor epithelial cells isolated from at least two cases of breast cancer tissues; ○: the medium added with this additive(s) has no significant effect on the proliferation of primary breast tumor epithelial cells isolated from at least three cases of breast cancer tissues
# Details: additive at the concentration given in Table 1 added to basis medium; cell count after 10 days of culture, compared with basis medium; five breast cancer samples
# Method: Matrigel (registered trademark) (manufactured by BD Biosciences) was diluted at 1:100 in serum-free DMEM/F12 medium to prepare an extracellular matrix dilution, which was added to a 48-well culture plate with 200 μl/well to completely cover the bottom of the wells of the culture plate. The resultant was let stand for 1 hour in a 37° C. incubator. After 1 hour, the extracellular matrix dilution was removed to provide a Matrigel-coated plate.
# First, a basis medium was prepared. To a commercial DMEM/F-12 medium, GlutaMAX-I (manufactured by Thermo Fisher SCIENTIFIC) was added at the specified concentration (1:100 dilution), human insulin (manufactured by Sigma) was added at a final concentration of 10 μg/ml, ROCK kinase inhibitor Y27632 (manufactured by Sigma) was added at a final concentration of 10 μM, and penicillin-streptomycin (manufactured by Thermo Fisher SCIENTIFIC) was added at a 1:100 dilution ratio, which provides the basis medium.
# Next, different types of additives (as shown in Table 1) were added to the basis medium to prepare breast epithelial cell culture mediums containing different supplementary components, and the mediums with different components were added at a volume of 500 μl/well to 48-well plates which were coated with extracellular matrix gel (Matrigel). Breast tumor cells (HMFL-XN1) isolated from breast cancer tissue in step (1) of this Example were inoculated in a Matrigel-coated 48-well culture plate at a cell density of 1×10^4 cells/well, and equal numbers of freshly isolated breast tumor cells (HMFL-XN1) were cultured under different medium formulations at 37° C., under 5% CO2 concentration and 20% oxygen concentration. The medium was renewed every 4 days after the start of the culture. After 10 days of culture, cell counts were performed. As an experiment control, the basis medium without any additives was used. Breast tumor cells isolated from the remaining four breast cancer tissue samples were cultured and counted in the same manner as above.
row,Molecule,Degree of cell
1,"Interleukin 10: medium additive (R&D) (protein, UniProt P22301 19-178, looked up) Interleukin-10: SPGQGTQSENSCTHFPGNLPNMLRDLRDAFSRVKTFFQMKDQLDNLLLKESLLEDFKGYLGCQALSEMIQFYLEEVMPQAENQDPDIKAHVNSLGENLKTLRLRLRRCHRFLPCENKSKAVEQVKNAFNKLQEKGIYKAMSEFDIFINYIEAYMTMKIRN",○
2,"Fibroblast growth factor 10: fibroblast growth factor 10 (FGF10), medium additive (protein, UniProt O15520 38-208, looked up) Fibroblast growth factor 10: QALGQDMVSPEATNSSSSSFSSPSSAGRHVRSYNHLQGDVRWRKLFSFTKYFLKIEKNGKVSGTKKENCPYSILEITSVEIGVVAVKAINSNYYLAMNKKGKLYGSKEFNNDCKLKERIEENGYNTYASFNWQHNGRQMYVALNGKGAPRRGQKTRRKNTSAHFLPMVVHS",+
3,"Noggin: medium additive (R&D) (protein, UniProt Q13253 28-232, looked up) Noggin: QHYLHIRPAPSDNLPLVDLIEHPDPIFDPKEKDLNETLLRSLLGGHYDPGFMATSPPEDRPGGGGGAAGGAEDLAELDQLLRQRPSGAMPSEIKGLEFSEGLAQGKKQRLSKKLRRKLQMWLWSQTFCPVLYAWNDLGSRFWPRYVKVGSCFSKRSCSVPEGMVCKPSKSVHLTVLRWRCQRRGGQRCGWIPIQYPIISECKCSC",○
4,"Amphiregulin: human amphiregulin (R&D Systems), medium additive (protein, UniProt P15514 101-187, looked up) Amphiregulin: SVRVEQVVKPPQNKTESENTSDKPKRKKKGGKNGKNRRNRKKKNPCNAEFQNFCIHGECKYIEHLEAVTCKCQQEYFGERCGEKSMK",+
5,"R-spondin1: R-spondin family protein, medium additive (protein, UniProt Q2MKA7 21-263, looked up) R-spondin-1: SRGIKGKRQRRISAEGSQACAKGCELCSEVNGCLKCSPKLFILLERNDIRQVGVCLPSCPPGYFDARNPDMNKCIKCKIEHCEACFSHNFCTKCKEGLYLHKGRCYPACPEGSSAANGTMECSSPAQCEMSEWSPWGPCSKKQQLCGFRRGSEERTRRVLHAPVGDHAACSDTKETRRCTVRRVPCPEGQKRRKGGQGRRENANRNLARKESKEAGAGSRRRKGQQQQQQQGTVGPLTSAGPA",○
6,"Fibroblast growth factor 7: fibroblast growth factor 7 (FGF7), medium additive (protein, UniProt P21781 32-194, looked up) Fibroblast growth factor 7: CNDMTPEQMATNVNCSSPERHTRSYDYMEGGDIRVRRLFCRTQWYLRIDKRGKVKGTQEMKNNYNIMEIRTVAVGIVAIKGVESEFYLAMNKEGKLYAKKECNEDCNFKELILENHYNTYASAKWTHNGGEMFVALNQKGIPVRGKKTKKEQKTAHFLPMAIT",+
7,"R-spondin3: R-spondin family protein, medium additive (protein, UniProt Q9BXY4 22-272, looked up) R-spondin-3: QNASRGRRQRRMHPNVSQGCQGGCATCSDYNGCLSCKPRLFFALERIGMKQIGVCLSSCPSGYYGTRYPDINKCTKCKADCDTCFNKNFCTKCKSGFYLHLGKCLDNCPEGLEANNHTMECVSIVHCEVSEWNPWSPCTKKGKTCGFKRGTETRVREIIQHPSAKGNLCPPTNETRKCTVQRKKCQKGERGKKGRERKRKKPNKGESKEAIPDSKSLESSKEIPEQRENKQQQKKRKVQDKQKSVSVSTVH",○
